{"source": "paper PMC10246721", "about": "“Cryo-EM structures for the Mycobacterium tuberculosis iron-loaded siderophore transporter IrtAB” (Protein & Cell, 2022)", "binders": {"B1": {"name": "IrtB with C-terminal 10x His tag (subunit of Mtb IrtAB) (natural protein)", "chain": "MIRTWIALVPNDHRARLIGFALLAFCSVVARAVGTVLLVPLMAALFGEAPQRAWLWLGWLSAATVAGWVLDAVTARIGIELGFAVLNHTQHDVADRLPVVRLDWFTAENTATARQAIAATGPELVGLVVNLVTPLTSAILLPAVIALALLPISWQLGVAALAGVPLLLGALWASAAFARRADTAADKANTALTERIIEFARTQQALRAARRVEPARSLVGNALASQHTATMRLLGMQIPGQLLFSIASQLALIVLAGTTAALTITGTLTVPEAIALIVVMVRYLEPFTAVSELAPALESTRATLGRIGSVLTAPVMVAGSGTWRDGAVVPRIEFDDVAFGYDGGSGPVLDGVSFCLQPGTTTAIVGPSGCGKSTILALIAGLHQPTRGRVLIDGTDVATLDARAQQAVCSVVFQHPYLFHGTIRDNVFAADPGASDDQFAQAVRLARVDELIARLPDGANTIVGEAGSALSGGERQRVSIARALLKAAPVLLVDEATSALDAENEAAVVDALAADPRSRTRVIVAHRLASIRHADRVLFVDDGRVVEDGSISELLTAGGRFSQFWRQQHEAAEWQILAE", "notes": "also called Rv1349"}}, "target": "T1, IrtA, full length (subunit of full-length Mtb IrtAB) (Mycobacterium tuberculosis H37Rv, UniProt P9WQJ9 1-859)", "T1 construct": "also called Rv1348", "T1 sequence": "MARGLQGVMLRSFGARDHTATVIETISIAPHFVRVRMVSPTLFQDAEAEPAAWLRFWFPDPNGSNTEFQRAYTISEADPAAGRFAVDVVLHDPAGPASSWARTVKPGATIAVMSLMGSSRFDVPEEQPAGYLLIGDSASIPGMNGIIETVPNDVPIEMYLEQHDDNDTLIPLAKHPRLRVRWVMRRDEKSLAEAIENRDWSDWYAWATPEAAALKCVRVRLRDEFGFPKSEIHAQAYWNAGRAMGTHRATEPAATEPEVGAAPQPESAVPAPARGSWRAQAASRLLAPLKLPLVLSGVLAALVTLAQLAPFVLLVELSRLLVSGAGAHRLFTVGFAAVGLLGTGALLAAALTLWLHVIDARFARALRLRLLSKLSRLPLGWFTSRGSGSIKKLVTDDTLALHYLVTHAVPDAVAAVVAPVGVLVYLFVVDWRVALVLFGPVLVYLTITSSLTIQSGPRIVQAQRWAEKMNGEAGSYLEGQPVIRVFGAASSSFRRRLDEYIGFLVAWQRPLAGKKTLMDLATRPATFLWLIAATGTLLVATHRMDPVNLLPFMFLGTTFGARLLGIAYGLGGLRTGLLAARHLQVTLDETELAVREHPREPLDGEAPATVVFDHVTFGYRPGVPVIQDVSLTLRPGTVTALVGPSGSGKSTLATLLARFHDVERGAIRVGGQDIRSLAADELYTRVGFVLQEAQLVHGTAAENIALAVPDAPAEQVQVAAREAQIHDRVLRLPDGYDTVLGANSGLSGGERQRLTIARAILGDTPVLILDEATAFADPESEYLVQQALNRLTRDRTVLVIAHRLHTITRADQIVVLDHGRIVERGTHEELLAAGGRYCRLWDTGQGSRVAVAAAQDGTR", "assay": "cryo-EM structure; full-length IrtAB without nucleotide, in digitonin, 20 mmol/L MES pH 6.5, 150 mmol/L NaCl; inward-facing", "details": "both partners purified"}
{"binder": "B1", "values": [{"measurement": "binding result", "value": "binds"}]}
